Data published in patent EP3418296A1.

How the values were obtained:
[1] = molecular target: Jurkat cultured leukemic cells (unnamed cell surface lectin receptors); assay: lectin binding to cultured Jurkat cells, lectin alone (method not described)
[2] = molecular target: Molt 4 cultured leukemic cells (unnamed cell surface lectin receptors); assay: lectin binding to cultured Molt 4 cells, lectin alone (method not described)
[3] = molecular target: COLO 205 cultured colon cells (unnamed cell surface lectin receptors); assay: lectin binding to cultured COLO 205 cells, lectin alone (method not described)
[4] = molecular target: PA-1 cultured ovarian cells (unnamed cell surface lectin receptors); assay: lectin binding to cultured PA-1 cells, lectin alone (method not described)
[5] = molecular target: native Sclerotium rolfsii lectin (SRL) (Sclerotium rolfsii); assay: inhibition by mucin of native lectin binding to Jurkat cells
[6] = molecular target: native Sclerotium rolfsii lectin (SRL) (Sclerotium rolfsii); assay: inhibition by mucin of native lectin binding to Molt 4 cells
[7] = molecular target: native Sclerotium rolfsii lectin (SRL) (Sclerotium rolfsii); assay: inhibition by mucin of native lectin binding to PA-1 cells
[8] = molecular target: native Sclerotium rolfsii lectin (SRL) (Sclerotium rolfsii); assay: inhibition by mucin of native lectin binding to COLO 205 cells

Row | Substance | % positive cells [1] | % positive cells [2] | % positive cells [3] | % positive cells [4] | % positive cells (lectin + mucin) [5] | % positive cells (lectin + mucin) [6] | % positive cells (lectin + mucin) [7] | % positive cells (lectin + mucin) [8]
1 | native Sclerotium rolfsii lectin (SRL) | 33.8% | 88.5% | 91.7% | 96.7% | – | – | – | –
2 | mucin | – | – | – | – | 0.5% | 0.24% | 1.63% | 0.99%
